Starred links: 1 amine or outer side, 2 acyl side, 3 side chain; linkers in the order of their positions; H or OH if unused. Positions of bridges follow the written chain, without caps; N, C: chain ends. Non-standard residues stand in square brackets, D forms with d. Groups on a side chain read outwards from the residue. Primed or numbered codes have the meaning given here. TMAPF = 5-(4-(2-amino-2-carboxyethyl)phenoxy)-N,N,N-trimethylpentan-1-aminium, C[N+](C)(C)CCCCCOc1ccc(C[C@H](N[*:1])C(=O)[*:2])cc1; AEF(G) = 2-amino-3-(4-(2-guanidinoethoxy)phenyl)propanoic acid, N=C(N)NCCOc1ccc(C[C@H](N[*:1])C(=O)[*:2])cc1; 6F2Nal = 2-amino-3-(6-fluoronaphthalen-2-yl)propanoic acid, O=C([C@H](Cc1ccc2cc(F)ccc2c1)N[*:1])[*:2]; Trp(7-(3-AcNH-Ph)) = CC(=O)Nc1cccc(-c2cccc3c(C[C@H](N)C(=O)O)c[nH]c23)c1; 2Nal(6-OH) = N[C@@H](Cc1ccc2cc(O)ccc2c1)C(=O)O; Trp(7-Me) = Cc1cccc2c(C[C@H](N)C(=O)O)c[nH]c12; 3Pal(5-Me) = Cc1cncc(C[C@H](N)C(=O)O)c1; γGlu = O=C(O)[C@H](CCC(=O)[*:2])N[*:1]; AEF = NCCOc1ccc(C[C@H](N)C(=O)O)cc1; 3Pal = N[C@@H](Cc1cccnc1)C(=O)O; NMecPEG3a = not defined here; Pen = CC(C)(S)[C@H](N)C(=O)O; PEG2′ = not defined here; Thp = NC1(C(=O)O)CCOCC1; Sar = CNCC(=O)O
T1: interleukin-23 receptor (IL-23R) (UniProt Q5VWK5 24-629, limits assumed)
T1 sequence (looked up): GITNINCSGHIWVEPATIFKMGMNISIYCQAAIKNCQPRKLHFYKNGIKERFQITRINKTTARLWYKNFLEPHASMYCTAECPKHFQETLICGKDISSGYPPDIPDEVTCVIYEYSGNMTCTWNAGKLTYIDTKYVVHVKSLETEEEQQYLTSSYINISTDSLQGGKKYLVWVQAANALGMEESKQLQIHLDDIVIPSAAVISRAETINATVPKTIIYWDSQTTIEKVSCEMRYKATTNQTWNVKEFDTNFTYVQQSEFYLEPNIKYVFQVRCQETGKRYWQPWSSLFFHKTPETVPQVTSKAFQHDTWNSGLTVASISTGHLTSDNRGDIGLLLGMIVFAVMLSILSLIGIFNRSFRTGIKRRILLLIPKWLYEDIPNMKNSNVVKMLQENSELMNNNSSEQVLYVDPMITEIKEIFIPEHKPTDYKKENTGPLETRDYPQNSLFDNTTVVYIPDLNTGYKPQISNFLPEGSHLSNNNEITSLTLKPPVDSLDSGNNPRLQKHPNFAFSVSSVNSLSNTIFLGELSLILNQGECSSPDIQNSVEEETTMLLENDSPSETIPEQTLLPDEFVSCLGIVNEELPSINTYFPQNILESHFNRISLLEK

T2: interleukin-23 receptor (IL-23R) (UniProt Q5VWK5 24-629, limits assumed)
T2 sequence (looked up): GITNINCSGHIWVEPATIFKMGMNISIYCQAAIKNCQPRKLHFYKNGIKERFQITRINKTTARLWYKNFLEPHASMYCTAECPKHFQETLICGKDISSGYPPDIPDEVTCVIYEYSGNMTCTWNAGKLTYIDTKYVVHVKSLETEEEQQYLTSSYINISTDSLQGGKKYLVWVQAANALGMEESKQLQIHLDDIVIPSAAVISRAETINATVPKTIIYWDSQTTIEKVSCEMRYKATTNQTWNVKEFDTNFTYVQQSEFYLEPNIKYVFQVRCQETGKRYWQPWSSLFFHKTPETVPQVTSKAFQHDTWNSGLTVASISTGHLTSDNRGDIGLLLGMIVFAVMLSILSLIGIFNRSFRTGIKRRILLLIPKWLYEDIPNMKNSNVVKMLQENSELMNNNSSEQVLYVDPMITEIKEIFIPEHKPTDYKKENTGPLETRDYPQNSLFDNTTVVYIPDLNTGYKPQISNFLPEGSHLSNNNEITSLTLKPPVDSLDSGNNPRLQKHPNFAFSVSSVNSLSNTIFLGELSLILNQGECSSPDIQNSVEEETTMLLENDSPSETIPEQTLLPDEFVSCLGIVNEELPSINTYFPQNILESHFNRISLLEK


Assays:
[1] = target: T1, interleukin-23 receptor (IL-23R); experiment: cell-based or functional assay
[2] = target: T2, interleukin-23 receptor (IL-23R); experiment: cell-based or functional assay; remark: listed apart in the source

| PBMC pSTAT3 IC50 [1] [nM] | IL23R Reporter Assay IC50 [2] [nM] | Binder |
| --- | --- | --- |
| < 0.01 |  | XXNTXXXXXXENXX (MeCO-k(Me)3-Pen(3)-N-T-7(3NAcPh)W-K(Ac)-Pen(3)-AEF(G)-6OH2Nal-THP-E-N-5MePyridinAla-Sar-CONH2) [SEQ ID NO: 11, listing 1 of 2 here] |
| < 0.1 |  | cPEG3aCO-[Pen]NT[Trp(7-Me)]K(NMecPEG3a)[Pen][AEF][2Nal(6-OH)][Thp]EN[3Pal][Sar]-NH2 (disulfide 1-6 (inferred); not fully specified; printed as cPEG3aCO-Pen(3)-N-T-7MeW-K(NMecPEG3a)-Pen(3)-AEF-6OH2Nal-THP-E-N-3Pya-Sar-CONH2; reading uncertain) [SEQ ID NO: 319] |
| < 0.1 |  | Ac-[dR][Pen]NT[Trp(7-(3-AcNH-Ph))]K(Ac)[Pen][AEF][2Nal(6-OH)][Thp]EN[3Pal][Sar]-NH2 (disulfide 2-7 (inferred)) [SEQ ID NO: 287] |
| < 1 |  | Ac-[dR][Pen]NT[Trp(7-Me)]K(Ac)[Pen][AEF][2Nal(6-OH)][Thp]EN[3Pal][Sar]K([PEG2′-PEG2′-γGlu-C18OH])-NH2 (disulfide 2-7 (inferred)) [SEQ ID NO: 282] |
|  | < 10 | XXNTXXXXXXENXX (MeCO-k(Me)3-Pen(3)-N-T-7(3NAcPh)W-K(Ac)-Pen(3)-AEF(G)-6OH2Nal-THP-E-N-5MePyridinAla-Sar-CONH2) [SEQ ID NO: 11, listing 2 of 2 here] |
| < 0.01 |  | Ac-[dR][Pen]NT[Trp(7-Me)]K(Ac)[Pen][AEF][2Nal(6-OH)][Thp]EN[3Pal][Sar]-NH2 (disulfide 2-7 (inferred)) [SEQ ID NO: 442] |
| < 0.1 |  | Ac-[dR][Pen]NT[Trp(7-Me)]K(Ac)[Pen][TMAPF][2Nal(6-OH)][Thp]EN[3Pal][Sar]-NH2 (disulfide 2-7 (inferred)) [SEQ ID NO: 59] |
| < 0.1 |  | Ac-[dR][Pen]NT[Trp(7-Me)]K(Ac)[Pen][AEF][6F2Nal][Thp]EN[3Pal][Sar]-NH2 (disulfide 2-7 (inferred)) [SEQ ID NO: 407] |
| < 0.01 |  | Ac-[Pen]NT[Trp(7-Me)]K(Ac)[Pen][AEF][2Nal(6-OH)][Thp]EN[3Pal][Sar]-NH2 (disulfide 1-6 (inferred)) [SEQ ID NO: 428] |
|  | < 10 | Ac-[dR][Pen]NT[Trp(7-(3-AcNH-Ph))]K(Ac)[Pen][AEF(G)][2Nal(6-OH)][Thp]EN[3Pal(5-Me)][Sar]-NH2 (disulfide 2-7 (inferred)) [SEQ ID NO: 15] |
